Measured values reported in patent US20250186614A1, “COMPACT DRUG RESPONSIVE DOMAINS FOR REGULATION OF FUNCTION/ABUNDANCE AND DELIVERY OF POLYPEPTIDE PAYLOADS” (OBSIDIAN THERAPEUTICS, INC., priority 2022, published 2025).
Numbering of substitutions follows the chain as printed. Numbers in names are those of the source.

B1: FKBP-166 (protein)
chain: HCPIKSRKGDVLHAHYTGKLEDGTEFDSSLPRNQPFVFWLGTGERIKGWDQGLLGMCEGEKRKLVIPSELGYGERGWPPKIPGGATLVFEVELLKIER
modifications: Description of sequence: Construct Name: FKBP-166; Mutation(s): Q72R S79W Q84E A117W DRD M54A V85R
B2: FKBP-167: FKBP13 DRD-AcGFP construct of Table 10 (protein)
chain: B1 chain with E44R
modifications: Description of sequence: Construct Name: FKBP-167; Mutation(s): Q72R S79W Q84R A117W DRD M54A V85R
B3: FKBP-168: FKBP13 DRD-AcGFP construct of Table 10 (protein)
chain: B1 chain with W39S, T42W, E44R
modifications: Description of sequence: Construct Name: FKBP-168; Mutation(s): Q72R T82W Q84R A117W DRD M54A V85R
B4: FKBP-169 (protein)
chain: B1 chain with W39S, T42W, R45V
modifications: Description of sequence: Construct Name: FKBP-169; Mutation(s): Q72R T82W Q84E A117W DRD M54A
B5: FKBP-170 (protein)
chain: B1 chain with W39S, T42W
modifications: Description of sequence: Construct Name: FKBP-170; Mutation(s): Q72R T82W Q84E A117W DRD M54A V85R
B6: FKBP-171 (protein)
chain: B1 chain with D10L, W39S, R45V
modifications: Description of sequence: Construct Name: FKBP-171; Mutation(s): Q72R Q84E A117W DRD M54A D50L
B7: FKBP-172 (protein)
chain: B1 chain with W39S, R45V, M56W
modifications: Description of sequence: Construct Name: FKBP-172; Mutation(s): Q72R Q84E A117W DRD M54A M96W
B8: FKBP-177 (protein)
chain: B1 chain with W39S, L40G, R45V
modifications: Description of sequence: Construct Name: FKBP-177; Mutation(s): Q72R Q84E A117W DRD M54AL80G
B9: FKBP-178 (protein)
chain: B1 chain with F38S, W39S, R45V
modifications: Description of sequence: Construct Name: FKBP-178; Mutation(s): Q72R Q84E A117W DRD M54AF78S
B10: FKBP-181 (protein)
chain: B1 chain with D10L, W39S
modifications: Description of sequence: Construct Name: FKBP-181; Mutation(s): Q72R Q84E A117W V85R DRD M54A D50L
B11: FKBP-182 (protein)
chain: B1 chain with W39S, M56W
modifications: Description of sequence: Construct Name: FKBP-182; Mutation(s): Q72R Q84E A117W V85R DRD M54A M96W
B12: FKBP-185 (protein)
chain: B1 chain with D10A, T17I, W39S, I96L
modifications: Description of sequence: Construct Name: FKBP-185; Mutation(s): Q72R Q84E A117W V85R DRD M54A D50L T57I I136L
B13: FKBP-186 (protein)
chain: B1 chain with W39S, G76E
modifications: Description of sequence: Construct Name: FKBP-186; Mutation(s): Q72R Q84E A117W V85R DRD M54A G116E
B14: FKBP-187 (protein)
chain: B1 chain with W39S, L40G
modifications: Description of sequence: Construct Name: FKBP-187; Mutation(s): Q72R Q84E A117W V85R DRD M54A L80G
B15: FKBP-188 (protein)
chain: B1 chain with F38S, W39S
modifications: Description of sequence: Construct Name: FKBP-188; Mutation(s): Q72R Q84E A117W V85R DRD M54A F78S
B16: FKBP-189 (protein)
chain: B1 chain with H13G, R32L, W39S
modifications: Description of sequence: Construct Name: FKBP-189; Mutation(s): Q72R Q84E A117W V85R DRD M54A H53G R72L

tested on: Jurkat cells; test: Sirolimus (rapamycin) dose response of FKBP13 constructs stably transduced into Jurkat cells, flow cytometry; type: cell-based; settings: rapamycin; Table 14; read-out: Rapamycin EC90
Procedure: Normalized EC50 values were calculated from the mCherry normalized GFP MFI values, which accounted for any differences in mCherry intensity between samples.

| Molecule | EC90 [µM] |
| --- | --- |
| B1 | 1.64 |
| B2 | 1.72 |
| B3 | 1.39 |
| B4 | 1.39 |
| B5 | 0.785 |
| B6 | 16 |
| B7 | 2.14 |
| B8 | 5.28 |
| B9 | 16.8 |
| B10 | 11.8 |
| B11 | 3.84 |
| B12 | 5.34 |
| B13 | 5.87 |
| B14 | 5.31 |
| B15 | 5.41 |
| B16 | 5.47 |

same assay, conditions: rapamycin; fold change; Table 14

| Molecule | Rapamycin FC |
| --- | --- |
| B1 | 15.7 |
| B2 | 11.3 |
| B3 | 18 |
| B4 | 10.8 |
| B5 | 16.1 |
| B6 | 14.1 |
| B7 | 21.3 |
| B8 | 2.3 |
| B9 | 2.9 |
| B10 | 15.5 |
| B11 | 21.5 |
| B12 | 2 |
| B13 | 1.7 |
| B14 | 2.3 |
| B15 | 2.6 |
| B16 | 2.5 |

same assay, conditions: rapamycin; normalized; Table 14; read-out: Rapamycin EC90 (Norm)

| Molecule | EC90 [µM] |
| --- | --- |
| B1 | 1.58 |
| B2 | 1.71 |
| B3 | 1.33 |
| B4 | 1.42 |
| B5 | 0.818 |
| B6 | 18 |
| B7 | 2.29 |
| B8 | 6.33 |
| B9 | 151 |
| B10 | 11.5 |
| B11 | 4.11 |
| B12 | 22 |
| B13 | 5.22 |
| B14 | 5.66 |
| B15 | 5.83 |
| B16 | 5.53 |

tested on: Jurkat cells; test: Tacrolimus dose response of FKBP13-AcGFP-mCherry constructs stably transduced into Jurkat cells, GFP MFI by flow cytometry; type: cell-based; set-up: Basal: unit not given here; settings: FIG. 44
How it was run: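 GFP geometric MFI was read by flow cytometry in mCherry+ cells and curve-fitted against tacrolimus dose. Cells were Jurkat E6-1, lentivirus-transduced with FKBP13-AcGFP-mCherry fusion constructs until 10-25% mCherry-positive on day 5 post-transduction.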

| Molecule | Basal | FC |
| --- | --- | --- |
| B2 | 96 | 47.22 |
| B3 | 72.7 | 60.19 |

same assay, conditions: FIG. 44; at 10 uM

| Molecule | At 10 uM |
| --- | --- |
| B2 | 4533 |
| B3 | 4376 |

same assay, conditions: read-out: Tacrolimus EC90 (Norm); tacrolimus; normalized; Table 14

| Molecule | EC90 [µM] |
| --- | --- |
| B1 | 0.223 |
| B2 | 0.335 |
| B3 | 0.351 |
| B4 | 0.493 |
| B5 | 0.138 |
| B6 | 10.1 |
| B7 | 1.31 |
| B8 | 23.9 |
| B9 | 28.4 |
| B10 | 5.06 |
| B11 | 0.928 |
| B12 | 23.4 |
| B13 | 21 |
| B14 | 21.3 |
| B15 | 20.8 |
| B16 | 30.1 |

same assay, conditions: read-out: Tacrolimus EC90; tacrolimus; Table 14

| Molecule | EC90 [µM] |
| --- | --- |
| B1 | 0.22 |
| B2 | 0.348 |
| B3 | 0.342 |
| B4 | 0.448 |
| B5 | 0.133 |
| B6 | 8.16 |
| B7 | 1.05 |
| B8 | 18.7 |
| B9 | 22.3 |
| B10 | 14.1 |
| B11 | 0.819 |
| B12 | 22.1 |
| B13 | 17.9 |
| B14 | 14.5 |
| B15 | 16.6 |
| B16 | 25.8 |

same assay, conditions: tacrolimus; fold change; Table 14

| Molecule | Tacrolimus FC |
| --- | --- |
| B1 | 46 |
| B2 | 46.8 |
| B3 | 60.2 |
| B4 | 50.1 |
| B5 | 47.6 |
| B6 | 60.3 |
| B7 | 63.1 |
| B8 | 22.3 |
| B9 | 36.4 |
| B10 | 52 |
| B11 | 64.9 |
| B12 | 40.2 |
| B13 | 19 |
| B14 | 24 |
| B15 | 20.5 |
| B16 | 23 |

tested on: not listed separately; test: Example 4: dose response of FKBP constructs 160-255, Ec50, Ec90 and fold change (raw and normalized to mCherry); type: cell-based; settings: FKBP constructs 160-255; not normalized; read-out: EC90
Procedure: Additional experiments were performed for constructs FKBP-160-292.

| Molecule | EC90 [µM] |
| --- | --- |
| B1 | 0.22 |
| B2 | 0.348 |
| B3 | 0.342 |
| B4 | 0.448 |
| B5 | 0.133 |
| B6 | 8.16 |
| B7 | 1.05 |
| B8 | 18.7 |
| B9 | 22.3 |
| B10 | 14.1 |
| B11 | 0.819 |
| B12 | 22.1 |
| B13 | 17.9 |
| B14 | 14.5 |
| B15 | 16.6 |
| B16 | 25.8 |

same assay, conditions: fold change during initial analysis

| Molecule | FC (fold change) |
| --- | --- |
| B1 | 46.0 |
| B2 | 46.8 |
| B3 | 60.2 |
| B4 | 50.1 |
| B5 | 47.6 |
| B6 | 60.3 |
| B7 | 63.1 |
| B8 | 22.3 |
| B9 | 36.4 |
| B10 | 52.0 |
| B11 | 64.9 |
| B12 | 40.2 |
| B13 | 19.0 |
| B14 | 24.0 |
| B15 | 20.5 |
| B16 | 23.0 |

same assay, conditions: normalized to mCherry; read-out: EC90 (Norm)

| Molecule | EC90 [µM] |
| --- | --- |
| B1 | 0.223 |
| B2 | 0.335 |
| B3 | 0.351 |
| B4 | 0.493 |
| B5 | 0.138 |
| B6 | 10.1 |
| B7 | 1.31 |
| B8 | 23.9 |
| B9 | 28.4 |
| B10 | 5.06 |
| B11 | 0.928 |
| B12 | 23.4 |
| B13 | 21 |
| B14 | 21.3 |
| B15 | 20.8 |
| B16 | 30.1 |
